Sequences and labels used below:
B1: P-1153 (antibody, V domains shown)
VH: QVQLVQSGVEVKKPGASVKVSCKASGYTFTNYYMYWVRQAPGQGLEWMGGINPSNGGTNYAQKFQGRVTLTTDSSTTTAYMELKSLQFDDTAVYYCARRDYRFDMGFDYWGQGTTVTVSS
VL: EIVLTQSPATLSLSPGERATLSCRASQGVSTSGYSYLAWYQQKPGQAPRLLIYLASYRASGVPARFSGSGSGTDFTLTISSLEPEDFAVYYCQHSRDLPLTFGGGTKVEIKR
B2: P-1151 (antibody, V domains shown)
VH: B1 VH
VL: B1 VL with A38H
B3: P-1148 (antibody, V domains shown)
VH: B1 VH with Y60F
VL: B1 VL with A38H
B4: P-1150 (antibody, V domains shown)
VH: B1 VH with Y60F
VL: B1 VL

Residue numbers refer to the chain shown, from its start.

human PD1-6His (human), sequence (chain, as listed by the source): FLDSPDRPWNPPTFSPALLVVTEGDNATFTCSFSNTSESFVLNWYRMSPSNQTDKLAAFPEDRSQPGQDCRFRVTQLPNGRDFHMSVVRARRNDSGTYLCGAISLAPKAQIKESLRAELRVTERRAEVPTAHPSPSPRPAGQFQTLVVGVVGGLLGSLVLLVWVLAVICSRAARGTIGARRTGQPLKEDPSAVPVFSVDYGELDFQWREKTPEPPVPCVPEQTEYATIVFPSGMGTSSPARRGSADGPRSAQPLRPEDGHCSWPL

The assay concerns the target human PD1-6His (human). The assay is described as follows: ELISA. For orientation: An ELISA detects its analyte on a solid surface through an enzyme-linked reagent.
For orientation: EC50 means the concentration at which the effect is half-maximal. Lower therefore signals greater potency. Regarding B1, it took 0.11 nM to reach a half-maximal effect (EC50).
Molecule B2 came in with an EC50 of 0.065 nM.
Turning to B3, the EC50 was 0.093 nM. The EC50 values of the last two molecules are within 1.5-fold of each other.
B4 registered an EC50 of 0.088 nM. This EC50 and that of the molecule before are within 1.5-fold of each other.

Values taken from patent US20260347474 (published 2026).
